A short description of the series: protease stability score; higher = more stable; yeast display proteolysis, trypsin and chymotrypsin.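 Note: relative to predicted unfolded state with 0 unfolded-like and 1 meaning tenfold more protease.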
Regarding “DEKEELVEYFWEVFLKSLRTGNWHEFVKMFDPDAKSHINGVHSIGRDHIATLILREHEEIRYTEIRERHIEVQGDKIHVHTEVDMFVGDKRIRTERHIHITIVNGRIKSMRVEIR”, the protease stability score is 0.958.

Turning to “DEKEETIERLIRMLWHAWRTGDEDSLRNLFDPHAKLHVDGRDLVGMEMVYEDFHRQLNEWRINDLVIRTFRVQGDKIEIKGEIFGDINGRHTRHEVIIHIVVVDGRIKSLEVIND”, the protease stability score is 1.66.

In turn, “DEKEEVLEKLDRLVMEAMETGDWELITKNFDPNTRITINGRELIGRAEWHRFLEEMRHSIKDYRIRSKREYDGRIEVDTESHFIVNIDGKRIEYETRTHVIMTKIDGKWLFTSVEVR” showed a protease stability score of 1.97.

In turn, “DEKEHELTRMIRMIETLLRTGDFEELEKLMDPDVRLDIDGKHLVGRHDLREFFLELGVKHTDTKEIHVIGDKAFLHTEIHVDGRTTKVIIIMHKINGRWIITSTHIRHH” registered a protease stability score of 1.47.

Sequence “DEKEHFAKWFIHVLIRHWYTGDEETTHRLADPNARYEIGDKELIGMDELFRHLEQLRVDSIDYRVEDIRFQGEKIHIHGKIRVEGVVNGQHFHLTFDLILHVEKINGRWHFREMQTR” displayed a protease stability score of 1.25.

Consider “DEKEHLLKLAIDILKHLHETGDETLAEELADPNTRVHYGDKHIHGRQRYIEHLHRERRRLGVDHSQIELHNWEVVDGRLHLDGKLTLLVGDKRIEFKVRIIMDKVNGRWILHSLEFH”, for which the protease stability score was 0.608.

For the sequence “DEKEKDFHHMLEDWRWATRTGDEDTLKDLMDPNAKVRYGDYEFHGREHVIQFYQQIRFHEIHVHHVRVIGNKLEADTRVRIEYNGRELSFETHLVLLKIDGKWVMKIHEID”, the protease stability score came out at 2.13.

For “DEKEKEFKEVWKRILEILLTGDEEELTRMADPHARLDVNGVERHGREEMSKYIRHWHEKVKNARFWIHSIHVVGEKVVIDTEIQIGDKRIRYIVHFIVVDGRIKEIHVHEEII”, the protease stability score stood at 2.12.

For the sequence “DEKEKESEDLAEIILKLWATGDEEIFEHLLDPNVWMIDEDEVFHGMEKVSEFLLRLREKLGVDHFRVHHIEIQGDKVHMDIRLEVNGKILKTHIRVIIINGRIHTVEIRIH”, the protease stability score is 2.37.

Sequence “DEKEKIVHEMFKLWVDLLLTGDEEILRRMLDPNTRLDFNGVDVIGMERIADHLRHWRFHDIRIEHMRVYNGRVEVETRLDGYWDGRRIRTTSHILLVVVGDKIKEIHIKID” yielded a protease stability score of 2.38.

As for “DEKEKLKQLARKFHKAMQTGDEDELKKNVDENVRADYGDRRYHGSEELAKWLREMKTKVDHLSMTIKDIRVKGDRAEIELEMTFDHNGRQETRQFTLQAQVHNGSLKIVQIRQS”, the protease stability score was 1.47.

In the case of “DEKEKVVRIAQEIINTIIHTGDERILEEFIDPNVRFYFNGQEFHGRELMSEIEKKHRDRFKNLRIFVEDTHVEVYGEWLRIKVHLRLEIGDKRHELHLDIIALKVNGRWLNKSAELRVE”, the protease stability score came to 1.64.

In turn, “DEKERESEEFIRRFISVYETGDWKTMFELADPHTRMIDIVNGRDIEIIGREAIRHIFEERMRLLGIKHFHIDHSSRQGNKYHQKVTIRVDGQEIEAHVHVIVVDGVLKQIEVRSK” returned a protease stability score of 1.06.

Turning to “DEKERKLLEIARLLIESFLTGDWKTFHEMLDPHVRFEVGDKEAHGWEEALRVWDHLKEEMRITDLDIHHYTVQGDKVHIDSRLHGEIDGKRVTFRTRIVVIVVNGRVKQVSYKIT”, the protease stability score was found to be 1.23.

In turn, “DEKERLADEILEDIRKSVHTGDWDEYLRLLDPNVRTVINGKTVHGREEIKELMERLGIDHHHLRVDHWEIIDGKVHVEIEVTLQIGDKHFSRSSHILIMKFNGQWIVHTFRLH” came in with a protease stability score of 1.73.

As for “DEKERLAHEFHERFLEALMTGDEHHIEEMFDPNARTRQGDKTFHGRERSLHLISEWWRQIDVVRDIHIHEIKFQGDFLSFHLMIDGEINGRRDELVVHVESRKIDGKWFLHSVTYT”, the protease stability score was 0.497.

Sequence “DEKHEFARRYYELEKKYLKTGDEEEWLKYVDPHVRVHVGDKDLVGMELAEEQWREIRYHHIDDKDMRIQGDKLHVKGRVDGTIGDKRHRVDMEVHIEIIDGRFKRIEVRIK” returned a protease stability score of 0.76.

In turn, “DEKHEFVRRRIEEWLEALRTGDEDTLHRLADPNVKMNINGVERHGRESMLSLFEEFGVNHFHIRDVKIQGEKSFIDGEIRYGDKIHRVQMEIQVIDGVLESHKLRVH” yielded a protease stability score of 1.13.

The sequence “DEKHEIMREALKEFITEQRTGNEDRIKQLMDPNVRIFVGDKEFHGREEVMRILKILRHELGVDNIFIILRSMHIVDGRVHLDVELHINGRIFKSELVILKIDGQWLIRSIHIE” yielded a protease stability score of 1.66.

“DEKHELNEKALSEFLKIVHTGDERLVREMMDPHVRVHINGRDHHGMDDAVELMKFIKNMTVILTDKKIQGDKLEVHGIWIYNGVREETEIISEKVDGRWVIREVRHD” displayed a protease stability score of 1.07.

Take “DEKHELTKRLVELFLHAMHTGNEDLLHEYMDPNVKLVVNGQEHHGRELANSVIRRMIEELRLKDSKIKDIEFQGEKVHLDVHLHFRQGDKHITLDARIILLKVDGRWVIESLIFH”: the protease stability score came to 1.76.

With “DEKKAKEAAHRLLEAMVTGDPRKLNENADEDVQVEYGDKSYTGREKLNEWAHEFQKRVDHVRIESIHQRGDTATVKVRVEHNGETDTFVLIVEAHNGRAKRIRQETR”, the protease stability score came out at 1.1.

For “DEKKEDIDRMVKEIHTIFATGDEDRFKELLDPNVRVDVDGKKRHGREDATEHFRKWVLTLGIDHSRVHSVHTIDGVVFLEIRFDVNGQTIKVRVLAVKVDGQWLIEEVEIRWK”, the protease stability score came to 2.38.

For the sequence “DEKNHLWDEISEIFVQNWVTGDEDSLRHMADPNVRTDINGVELHGMEETNRFIIEELKHARSRVHLEHRDAVNGRIHLQTELYSNVDGQEIRYKTRIILIVVNGRLKEIKFIQH”, the protease stability score worked out at 0.581.

In turn, “DEKQDLWRHLLEQFFRWYQTGDEDLLFKYADPHVRFRQGDKEHHGREEMIRMLREHRHHFGADHFKVETMEIQGDKATFVMHDHVNGVDIEIRVHVVVIDGRIRSFKFERH” registered a protease stability score of 1.34.

Sequence “DEKQEFIERIAKELLDSWLTGDEEHLRNMMDPHVRTDVNGREFHGREETIKAMQILGVDHLEIKDYRVINGRIHANSRMWIGDKQIETHLILRVVNGRVKEIKIEIR” showed a protease stability score of 1.97.

“DEKQRDIEEMARRFVEIFHTGDEENYLELADPDMRLDVGDKHYHGREDVHKWLHEELRRIKNATIRIKHIHVQGDKVHLEITIEIGDKHRKSHIHLQIVDGVIKRIEIRWS” had a protease stability score of 1.09.

“DEKQVLELIRDVMKHVQNGNQEEVKKHGKPSVEVILFNERYTGPEALVRLAEFAQKLGAQFEYKETRHEGNKVKTKVEVTFGGTTVRYEVEVEAEGGKVVKWEVRASDEFDERVKKS” came in with a protease stability score of 1.29.

As for “DEKREESERALNHLFKSMLTGDEEDVRKLADPHAKFIINGRSDIGRESVSHHWHRLWRELGVKHLDVRSFRVYDGRVDSKTRVEIGDKEHEMEVYIVKVNGRWHIEELEFR”, the protease stability score is -0.12.

For the sequence “DEKRKEMEQLARIIIHLWETGDEEKWREYADPNTRLDVDGRNSHGMHNTLEVLRRRLEELGFDHVEMEIKHITVIGDKAQINGKVHLYWNGKTIDVPSEIIIVIINGRLHSIELRHE”, the protease stability score stood at 1.44.

Sequence “DEKRKLAEEIMRLLLHAYKTGDEELIHKLADPDTRVIINGVDLHGWEEMNRHLEEIIRQFDHWDLKIRDFRIQGDKYHIHGHLIHIQGDKHIRHDVNFHIVFVNGRQTSNHIDIH” displayed a protease stability score of 1.41.

With “DEKRKVEERLLELIIEIFRTGDWEWYSELADPNVRVHQGEYHKHGREQASKHLLDELRHLGIKHIDERSYDVIDGQVYWHVRIEVGDKERQMHIRVRIVNGVLQHVHIEIH”, the protease stability score amounted to 1.17.

Regarding “DEKSDIYHQALRLWIDTMVTGDENLYERLLDPHVRVEIGDKEIHGRERVSEFFKRFAEHLGVDHVELHDFRYQGDYVRLRISIEYNGQHLDTDLIITKINGRWYIHSEKYK”, the protease stability score was found to be 1.26.

“DEKSEHILELLRLMLELLVTGDWSMLRKLVDPNARMYYGDKEFHGWEDMVKFIKILLERIDHVEIRLHNSDVQGEKAKSDGTLIERVNGQEVRFDSHIINIVVNGRAKEVRIEVH” gave a protease stability score of 1.22.

The values are drawn from the NTF2 design screens of Basanta et al. (2020).
